Source: paper doi:10.1101/2025.11.10.687702

What was measured:
Rab7A(QL)-6xHis (human) = Rab7A(QL)-6xHis (human) (UniProt P51149); test: liposome flotation; purified VPS13C construct with SUVs (84.8% POPC, 10% POPE, 5% DGS-NTA, 0.2% Rhodamine-PE) to which His-tagged Rab7A(QL) or ATG7 was tethered; 1 mM GTP, 2 mM Mg2+, room temperature 20 min; OptiPrep gradient, top fraction on SDS-PAGE
[1] = molecular target: human Rab7A-Q67L with an N-terminal Strep tag (human) (UniProt P51149); test: pull-down; Strep-Rab7A(Q67L) and FLAG-tagged VPS13C constructs co-expressed in Expi293F; lysate in buffer A with 1 mM GTP and 2 mM MgCl2 on Strep-Tactin XT resin, 2 h at 4 °C, eluted with 50 mM biotin; SDS-PAGE with Coomassie stain and/or anti-FLAG western blot
Chain of human Rab7A-Q67L with an N-terminal Strep tag (human) (P51149 whole entry Q67L): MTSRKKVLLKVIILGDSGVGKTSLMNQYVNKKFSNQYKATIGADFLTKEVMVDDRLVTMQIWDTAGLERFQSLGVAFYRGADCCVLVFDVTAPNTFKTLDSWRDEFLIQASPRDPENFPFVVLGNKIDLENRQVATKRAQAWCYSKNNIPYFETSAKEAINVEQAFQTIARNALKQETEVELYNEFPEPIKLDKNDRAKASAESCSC

Chain of Rab7A(QL)-6xHis (human) (P51149 whole entry Q67L): as above
Chain of VPS13C lacking the amphipathic helices of the ATG2_C motif, C-terminal 3xFLAG (Q709C8 whole entry): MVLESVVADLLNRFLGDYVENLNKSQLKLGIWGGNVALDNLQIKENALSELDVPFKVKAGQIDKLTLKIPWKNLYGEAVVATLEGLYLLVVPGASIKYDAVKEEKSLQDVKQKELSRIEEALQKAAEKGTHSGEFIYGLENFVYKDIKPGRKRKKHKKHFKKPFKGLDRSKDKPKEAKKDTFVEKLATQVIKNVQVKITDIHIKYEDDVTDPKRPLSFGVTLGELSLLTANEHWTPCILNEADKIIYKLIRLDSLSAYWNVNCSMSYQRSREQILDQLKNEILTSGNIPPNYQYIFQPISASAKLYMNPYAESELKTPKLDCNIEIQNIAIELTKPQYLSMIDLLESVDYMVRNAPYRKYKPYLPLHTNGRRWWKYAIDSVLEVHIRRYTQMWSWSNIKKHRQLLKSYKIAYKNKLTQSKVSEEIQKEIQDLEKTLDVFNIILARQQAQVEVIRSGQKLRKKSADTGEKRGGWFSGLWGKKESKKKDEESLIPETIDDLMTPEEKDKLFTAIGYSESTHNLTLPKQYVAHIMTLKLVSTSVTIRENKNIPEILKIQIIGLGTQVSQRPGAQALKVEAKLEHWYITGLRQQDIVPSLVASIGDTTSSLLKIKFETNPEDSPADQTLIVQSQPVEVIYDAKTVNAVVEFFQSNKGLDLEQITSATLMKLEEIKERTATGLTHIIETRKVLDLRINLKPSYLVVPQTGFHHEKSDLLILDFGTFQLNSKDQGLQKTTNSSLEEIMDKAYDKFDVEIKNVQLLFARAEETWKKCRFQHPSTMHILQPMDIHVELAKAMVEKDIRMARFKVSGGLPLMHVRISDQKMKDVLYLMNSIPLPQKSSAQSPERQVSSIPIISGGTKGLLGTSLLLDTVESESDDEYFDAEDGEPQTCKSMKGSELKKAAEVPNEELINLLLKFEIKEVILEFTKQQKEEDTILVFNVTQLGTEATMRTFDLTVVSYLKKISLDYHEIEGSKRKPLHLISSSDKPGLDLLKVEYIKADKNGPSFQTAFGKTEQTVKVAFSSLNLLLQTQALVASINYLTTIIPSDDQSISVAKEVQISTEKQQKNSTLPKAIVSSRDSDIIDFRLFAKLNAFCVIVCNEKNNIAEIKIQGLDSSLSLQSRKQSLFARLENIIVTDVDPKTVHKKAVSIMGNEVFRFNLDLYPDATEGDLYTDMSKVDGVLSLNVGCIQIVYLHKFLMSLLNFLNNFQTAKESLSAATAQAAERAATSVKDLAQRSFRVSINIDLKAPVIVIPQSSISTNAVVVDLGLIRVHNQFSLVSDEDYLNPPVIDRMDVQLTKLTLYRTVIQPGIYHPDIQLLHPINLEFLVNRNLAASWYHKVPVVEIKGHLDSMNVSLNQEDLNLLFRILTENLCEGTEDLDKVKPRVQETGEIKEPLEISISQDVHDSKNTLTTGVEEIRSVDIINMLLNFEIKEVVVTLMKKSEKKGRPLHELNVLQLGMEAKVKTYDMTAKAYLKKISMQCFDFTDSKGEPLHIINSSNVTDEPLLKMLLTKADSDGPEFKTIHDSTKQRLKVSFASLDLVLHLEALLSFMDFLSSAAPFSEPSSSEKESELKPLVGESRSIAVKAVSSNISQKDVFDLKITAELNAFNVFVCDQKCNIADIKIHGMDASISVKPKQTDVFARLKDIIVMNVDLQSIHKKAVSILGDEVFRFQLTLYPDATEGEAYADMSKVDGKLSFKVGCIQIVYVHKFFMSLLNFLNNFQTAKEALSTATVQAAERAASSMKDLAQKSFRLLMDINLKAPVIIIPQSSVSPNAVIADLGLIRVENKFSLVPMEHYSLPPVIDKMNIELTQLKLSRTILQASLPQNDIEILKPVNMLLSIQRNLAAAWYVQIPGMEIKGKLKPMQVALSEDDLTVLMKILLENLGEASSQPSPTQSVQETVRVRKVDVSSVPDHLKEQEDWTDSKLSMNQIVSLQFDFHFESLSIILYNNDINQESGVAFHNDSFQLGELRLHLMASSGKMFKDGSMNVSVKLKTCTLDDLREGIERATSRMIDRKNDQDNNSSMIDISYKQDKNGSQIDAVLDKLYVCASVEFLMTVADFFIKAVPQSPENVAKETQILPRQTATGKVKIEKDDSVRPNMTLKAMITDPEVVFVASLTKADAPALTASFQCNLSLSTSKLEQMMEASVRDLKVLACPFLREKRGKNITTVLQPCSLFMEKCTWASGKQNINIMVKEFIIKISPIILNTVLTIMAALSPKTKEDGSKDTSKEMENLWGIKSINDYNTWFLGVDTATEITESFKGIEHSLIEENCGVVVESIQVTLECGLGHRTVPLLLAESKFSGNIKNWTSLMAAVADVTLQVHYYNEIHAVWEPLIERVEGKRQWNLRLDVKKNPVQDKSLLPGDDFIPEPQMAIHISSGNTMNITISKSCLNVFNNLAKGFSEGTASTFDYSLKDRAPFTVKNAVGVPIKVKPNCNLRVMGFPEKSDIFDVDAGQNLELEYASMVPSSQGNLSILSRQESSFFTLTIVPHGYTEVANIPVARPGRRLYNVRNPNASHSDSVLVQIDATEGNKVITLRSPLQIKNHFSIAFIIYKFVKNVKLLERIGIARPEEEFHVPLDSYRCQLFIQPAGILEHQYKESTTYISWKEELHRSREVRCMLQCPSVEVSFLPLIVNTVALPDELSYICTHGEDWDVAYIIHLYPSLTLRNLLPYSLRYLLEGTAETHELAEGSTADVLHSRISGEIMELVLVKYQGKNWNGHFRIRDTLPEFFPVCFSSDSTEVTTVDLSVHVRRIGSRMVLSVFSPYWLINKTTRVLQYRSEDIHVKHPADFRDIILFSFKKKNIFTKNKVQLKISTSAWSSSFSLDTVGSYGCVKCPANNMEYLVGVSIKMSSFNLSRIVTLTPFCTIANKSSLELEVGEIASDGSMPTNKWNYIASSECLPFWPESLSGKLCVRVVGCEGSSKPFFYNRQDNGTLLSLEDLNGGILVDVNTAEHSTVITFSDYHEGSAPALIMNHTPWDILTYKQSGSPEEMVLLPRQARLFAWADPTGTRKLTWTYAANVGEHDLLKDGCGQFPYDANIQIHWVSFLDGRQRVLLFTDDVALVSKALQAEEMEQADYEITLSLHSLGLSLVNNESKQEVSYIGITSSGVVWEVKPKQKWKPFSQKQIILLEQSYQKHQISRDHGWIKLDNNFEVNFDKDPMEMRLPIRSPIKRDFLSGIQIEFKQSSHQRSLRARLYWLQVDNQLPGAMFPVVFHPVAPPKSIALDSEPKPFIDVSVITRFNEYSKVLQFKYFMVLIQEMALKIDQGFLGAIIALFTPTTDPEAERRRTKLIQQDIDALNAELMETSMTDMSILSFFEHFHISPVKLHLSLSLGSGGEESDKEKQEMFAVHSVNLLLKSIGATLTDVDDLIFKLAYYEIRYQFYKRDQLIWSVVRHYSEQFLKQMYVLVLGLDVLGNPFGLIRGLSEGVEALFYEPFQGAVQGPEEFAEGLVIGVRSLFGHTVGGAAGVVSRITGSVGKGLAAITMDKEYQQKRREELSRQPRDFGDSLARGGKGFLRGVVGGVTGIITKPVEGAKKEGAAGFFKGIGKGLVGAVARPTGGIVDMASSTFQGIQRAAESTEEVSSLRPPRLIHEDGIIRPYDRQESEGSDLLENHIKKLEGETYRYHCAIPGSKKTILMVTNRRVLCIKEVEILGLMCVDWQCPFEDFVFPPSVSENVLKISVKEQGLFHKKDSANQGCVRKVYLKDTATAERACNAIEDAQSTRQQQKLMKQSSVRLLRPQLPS

Substance	percent co-floated with SUVs bearing His-tagged Rab7A (Rab7A(QL)-6xHis (human)) [%]	fraction of total overexpressed VPS13C retained by Rab7(Q67L) [1] [%]
VPS13C lacking the amphipathic helices of the ATG2_C motif, C-terminal 3xFLAG (from UniProt Q709C8 1-3753) (natural protein)	> 80	–
full-length human VPS13C with a C-terminal 3xFLAG tag, Q709C8 1-3753	–	5
